Reference: article PMC8035321

Molecular target: mouse MOCCI^FLAG (Modulator of cytochrome C oxidase during Inflammation, FLAG-tagged) (mouse)
Test: co-IP; anti-FLAG M2 beads on total mouse heart mitochondria (AAV-MOCCI; AAV-GFP as negative control) solubilised with 1% digitonin in IP buffer (50 mM HEPES-KOH, 150 mM NaCl, 1 mM EDTA, pH 7.4), 4 °C; elution with 3X FLAG peptide; immunoblotting

enrichment in the anti-FLAG immunoprecipitate: 231%
Substance: MTCO-1, the catalytic subunit of CIV (cytochrome C oxidase) (from UniProt P00397 1-514) (natural protein)
